In paper PMC9692554:
Residue numbers refer to the chain shown, from its start.

Legend:
Details in all cases: EMSA: 20 mM Tris pH 8, 60 mM KCl, 1 mM EDTA, 12% glycerol, 2 mM DTT, 1 ug poly(dI-dC), 12.5 ng (legend: 12.5 nM) Cy5-DNA, +/-5 mM Ca2+, 1% agarose 0.5x TAE …
[1] = target: T1, pMarR (Gp0.7) WT (cyanophage P-SSP7) (UniProt Q58N47); experiment: EMSA
T1 sequence: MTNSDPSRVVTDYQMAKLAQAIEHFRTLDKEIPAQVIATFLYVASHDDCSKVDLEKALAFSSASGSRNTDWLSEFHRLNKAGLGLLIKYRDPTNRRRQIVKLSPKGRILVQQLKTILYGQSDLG

[2] = target: T2, pMarR G106A G106A (cyanophage P-SSP7) (UniProt Q58N47); experiment: EMSA
T2 sequence: T1 sequence with G106A

[3] = target: T3, pMarR R67A R67A (cyanophage P-SSP7) (UniProt Q58N47); experiment: EMSA
T3 sequence: T1 sequence with R67A

[4] = target: T4, pMarR S66A S66A (cyanophage P-SSP7) (UniProt Q58N47); experiment: EMSA
T4 sequence: T1 sequence with S66A

[5] = target: T1, pMarR (Gp0.7) WT (cyanophage P-SSP7); experiment: DNase I footprinting

Sequence | Kd [1] [nM] | binding [2] | binding [3] | binding [4] | binding [5]
CAGCATCAATACCTGGTAGGACATTTTCAACAGTTCCTAAAAAAATATCCCCGATTTGATATTGACCTTGTGCGACGATTAATTCATCAACTTGATCATCTGTGAGTAGTGCTGCAATACGCGCCTGCTCAGCTATTACAATTTGCTGAGAC (double strand) [rne Pi+] | 320 | binds | no binding | binds | –
CAGCATCAATACCTGGTAGGACATTTTCAACAGTTCCTAAAAAAATATCCCCGATTTGATATTGACCTTGTGCGACGATTAATTCATCAACTTGATCATCTGTGAGTAGTGCTGCAATACGCGCCTGCTCAGCTATTACAATTTGCTGAGACATAAAAATTTTAAAGTATGTTTTGAATTTTTGAAAATCGATAAAAAGTAAATAATTACATATTTAATTTTTCGCTAGCAATTTCTTGAAAGC (double strand) [rne footprint fragment (Pi+ and part of Pi)] | – | – | – | – | binds
